Results on four molecules are retold here after patent US20190161548A1 (published 2019).

Assay [1] addresses T1, His-tagged soluble cynomolgus monkey CTLA-4 (cynomolgus monkey, UniProt G7PL88 36-161).
T1 construct: extracellular domain; also called Cyno CTLA-4
T1 sequence: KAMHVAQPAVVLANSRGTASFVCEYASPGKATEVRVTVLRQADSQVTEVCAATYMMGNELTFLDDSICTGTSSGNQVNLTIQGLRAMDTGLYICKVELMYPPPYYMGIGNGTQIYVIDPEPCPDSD
The assay is described as follows: BIACORE (SPR); His-tagged soluble cynomolgus monkey CTLA-4 captured on anti-PentaHis, binding molecule 12.5-200 nM as analyte; avidity by separate ka/kd 1:1 fit. On the procedure:
(§1) Briefly, His-tagged soluble CTLA-4 (an extracellular portion of human or cynomolgus monkey CTLA-4 fused to a histidine-containing peptide) was captured on immobilized anti-PentaHis and then different concentrations (12.5-200 nM) of the CTLA-4 binding molecules were passed over the immobilized CTLA-4 proteins. The kinetics of binding were determined via BIACORE® analysis (affinity by 1:1 Langmuir binding model (simultaneous ka/kd); or avidity by separate ka/kd 1:1 fit).
For orientation: Surface plasmon resonance follows binding to a sensor surface in real time, without labels.

Assay [2] has as its target T1, His-tagged soluble cynomolgus monkey …. The assay is described as follows: BIACORE (SPR); His-tagged soluble cynomolgus monkey CTLA-4 captured on anti-PentaHis, binding molecule 12.5-200 nM as analyte; affinity by 1:1 Langmuir binding model. As for the experimental part: as §1
Assay [3] addresses T2, human CTLA-4 expressed on the cell surface (human, UniProt P16410 36-223).
T2 construct: also called huCTLA-4; CHO cells expressing human CTLA-4
T2 sequence: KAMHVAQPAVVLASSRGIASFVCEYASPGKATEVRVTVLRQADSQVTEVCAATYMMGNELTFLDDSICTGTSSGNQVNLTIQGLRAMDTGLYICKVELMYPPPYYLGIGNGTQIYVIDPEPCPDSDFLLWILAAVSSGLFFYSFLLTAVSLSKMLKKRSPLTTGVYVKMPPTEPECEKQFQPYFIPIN
The assay is described as follows: FACS on Jurkat cells which express huCTLA-4 but not PD-1, anti-human Fc secondary. The source says: Binding of the DART and TRIDENT molecules to human CTLA-4 was detected using anti-human FC secondary Ab (FACS).

Assay [4] addresses T3, His-tagged soluble human PD-1 (human, UniProt Q15116 25-170).
T3 construct: also called hPD-1-His; shPD-1
The assay is described as follows: ELISA; soluble human PD-1 coated; goat anti-human-Fcgamma-HRP, PICO chemiluminescent substrate. The source says:
FIGS. 8A-8D show the results of ELISA studies measuring the binding of serially diluted binding molecules to human CTLA-4 and human PD-1. […] Goat anti-human-Fc-HRP (1:10,000) was employed as the secondary detection molecule to detect binding. FIGS. 8C-8D show the results of a study on the effect of altering orientations and binding domains on binding. […] Goat anti-human-Fcγ-HRP was employed as the secondary detection molecule to detect binding using PICO chemiluminescent substrate.
Goat anti-human-Fcγ-HRP was employed as the secondary detection molecule to detect binding using PICO chemiluminescent substrate.
(In an ELISA, binding on a coated surface is turned into a signal by an enzyme label.)

As a reminder, the EC50 is the concentration at which the effect is half-maximal.

T3 sequence (Q15116 25-170 limits assumed): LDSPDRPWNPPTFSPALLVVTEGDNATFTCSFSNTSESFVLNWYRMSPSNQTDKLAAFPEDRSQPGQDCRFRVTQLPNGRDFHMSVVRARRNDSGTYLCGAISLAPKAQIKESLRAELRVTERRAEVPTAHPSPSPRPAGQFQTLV

B1: DART D (bispecific antibody, human IgG4 S228P)
chain 1: EIVLTQSPATLSLSPGERATLSCRASESVDNYGMSFMNWFQQKPGQPPKLLIHAASNQGSGVPSRFSGSGSGTDFTLTISSLEPEDFAVYFCQQSKEVPYTFGGGTKVEIKGGGSGGGGQVQLVESGGGVVQPGRSLRLSCAASGFTFSSYTMHWVRQAPGKGLEWVTFISYDGSNKHYADSVKGRFTVSRDNSKNTLYLQMNSLRAEDTAIYYCARTGWLGPFDYWGQGTLVTVSSGGCGGGEVAACEKEVAALEKEVAALEKEVAALEKESKYGPPCPPCPAPEFLGGPSVFLFPPKPKDTLYITREPEVTCVVVDVSQEDPEVQFNWYVDGVEVHNAKTKPREEQFNSTYRVVSVLTVLHQDWLNGKEYKCKVSNKGLPSSIEKTISKAKGQPREPQVYTLPPSQEEMTKNQVSLTCLVKGFYPSDIAVEWESNGQPENNYKTTPPVLDSDGSFFLYSRLTVDKSRWQEGNVFSCSVMHEALHNHYTQKSLSLSLG
chain 2: not shown
notes: Four-chain Fc Region-containing diabody, two PD-1 sites (PD-1 mAb 6-ISQ) and two CTLA-4 sites (CTLA-4 mAb 3), IgG4 (YTE) Fc, E/K-coils
For B1, the Kd in assay [1] was found to be 4.9 nM.

B2: TRIDENT A (bispecific antibody, human IgG4 S228P, kappa)
chain 1: EIVLTQSPATLSLSPGERATLSCRASESVDNYGMSFMNWFQQKPGQPPKLLIHAASNQGSGVPSRFSGSGSGTDFTLTISSLEPEDFAVYFCQQSKEVPYTFGGGTKVEIKGGGSGGGGQVQLVQSGAEVKKPGASVKVSCKASGYSFTSYWMNWVRQAPGQGLEWIGVIHPSDSETWLDQKFKDRVTITVDKSTSTAYMELSSLRSEDTAVYYCAREHYGTSPFAYWGQGTLVTVSSGGCGGGEVAACEKEVAALEKEVAALEKEVAALEKESKYGPPCPPCPAPEFLGGPSVFLFPPKPKDTLYITREPEVTCVVVDVSQEDPEVQFNWYVDGVEVHNAKTKPREEQFNSTYRVVSVLTVLHQDWLNGKEYKCKVSNKGLPSSIEKTISKAKGQPREPQVYTLPPSQEEMTKNQVSLWCLVKGFYPSDIAVEWESNGQPENNYKTTPPVLDSDGSFFLYSRLTVDKSRWQEGNVFSCSVMHEALHNHYTQKSLSLSLG
chain 2: EIVLTQSPATLSLSPGERATLSCRASESVDNYGMSFMNWFQQKPGQPPKLLIHAASNQGSGVPSRFSGSGSGTDFTLTISSLEPEDFAVYFCQQSKEVPYTFGGGTKVEIKGGGSGGGGQVQLVQSGAEVKKPGASVKVSCKASGYSFTSYWMNWVRQAPGQGLEWIGVIHPSDSETWLDQKFKDRVTITVDKSTSTAYMELSSLRSEDTAVYYCAREHYGTSPFAYWGQGTLVTVSSGGCGGGKVAACKEKVAALKEKVAALKEKVAALKE
heavy: QVQLVESGGGVVQPGRSLRLSCAASGFTFSSYTMHWVRQAPGKGLEWVTFISYDGSNKHYADSVKGRFTVSRDNSKNTLYLQMNSLRAEDTAIYYCARTGWLGPFDYWGQGTLVTVSSASTKGPSVFPLAPCSRSTSESTAALGCLVKDYFPEPVTVSWNSGALTSGVHTFPAVLQSSGLYSLSSVVTVPSSSLGTKTYTCNVDHKPSNTKVDKRVESKYGPPCPPCPAPEFLGGPSVFLFPPKPKDTLYITREPEVTCVVVDVSQEDPEVQFNWYVDGVEVHNAKTKPREEQFNSTYRVVSVLTVLHQDWLNGKEYKCKVSNKGLPSSIEKTISKAKGQPREPQVYTLPPSQEEMTKNQVSLSCAVKGFYPSDIAVEWESNGQPENNYKTTPPVLDSDGSFFLVSRLTVDKSRWQEGNVFSCSVMHEALHNRYTQKSLSLSLG
light: not shown
Molecule B2 displayed a Kd in assay [2] of 260 nM.

B3: PD-1 mAb 6 G4P (antibody, human IgG4 S228P, kappa, V domains shown)
VH: QVQLVQSGAEVKKPGASVKVSCKASGYSFTSYWMNWVRQAPGQGLEWIGVIHPSDSETWLDQKFKDRVTITVDKSTSTAYMELSSLRSEDTAVYYCAREHYGTSPFAYWGQGTLVTVSS
VL: EIVLTQSPATLSLSPGERATLSCRASESVDNYGMSFMNWFQQKPGQPPKLLIHAASNQGSGVPSRFSGSGSGTDFTLTISSLEPEDFAVYFCQQSKEVPYTFGGGTKVEIKR
notes: IgG4 with stabilized hinge, kappa light chain; also called the PD-1 antibody; parental anti-PD-1 antibody
On to B3, for which, in assay [3], a half-maximal response (EC50) required 6.56 nM.

B4: DART C (bispecific antibody)
chain 1: not shown
chain 2: EIVLTQSPATLSLSPGERATLSCRASESVDNYGMSFMNWFQQKPGQPPKLLIHAASNQGSGVPSRFSGSGSGTDFTLTISSLEPEDFAVYFCQQSKEVPYTFGGGTKVEIKGGGSGGGGQVQLVESGGGVVQPGRSLRLSCAASGFTFSSYTMHWVRQAPGKGLEWVTFISYDGSNKHYADSVKGRFTVSRDNSKNTLYLQMNSLRAEDTAIYYCARTGWLGPFDYWGQGTLVTVSSGGCGGGKVAACKEKVAALKEKVAALKEKVAALKE
notes: Four-chain Fc Region-containing diabody, two PD-1 sites (PD-1 mAb 6-ISQ) and two CTLA-4 sites (CTLA-4 mAb 3), IgG4 Fc, E/K-coils
B4: in assay [4], the binding result is given as “binds”.
